Laboratory results as given in patent US20080026996A1, “Selective Vpac2 Receptor Reptide Agonists” (ELI LILLY AND COMPANY, priority 2004, published 2008).
Numbering of substitutions follows the chain as printed. Where no end group is shown, it is not given here. [ ]: non-standard residue; d: D form. The star is where a group is joined. Hexanoyl = CCCCCC(=O)*

B1: P37 (peptide)
peptide: HSDAVFTDNYTRLRKQVAAKKYLQSIKNKRYC
B2: P43 (peptide)
peptide: HGDAVFTDNYTRLRKQVAAKKYLQSIKNKRYGGPSSGAPPPS
B3: P62 (peptide)
peptide: B2 peptide with G2S, V5T
B4: P64 (peptide)
peptide: B2 peptide with G2S, F6L
B5: P53 (peptide)
peptide: B2 peptide with G2S, A4V
B6: P54 (peptide)
peptide: B2 peptide with G2S, A4T
B7: P46 (peptide)
peptide: B2 peptide with G2L
B8: P51 (peptide)
peptide: B2 peptide with G2S, A4Y
B9: P76 (peptide)
peptide: B2 peptide with G2S, R30I
B10: P68 (peptide)
peptide: B2 peptide with G2S, F6Y
B11: P75 (peptide)
peptide: B2 peptide with G2S, K29N
B12: P65 (peptide)
peptide: B2 peptide with G2S, F6T
B13: P66 (peptide)
peptide: B2 peptide with G2S, F6V
B14: P55 (peptide)
peptide: B2 peptide with G2S, A4L
modifications: not fully specified
B15: P61 (peptide)
peptide: B2 peptide with G2S, V5L
modifications: not fully specified
B16: P6 (peptide)
peptide: B2 peptide with G2S
B17: P56 (peptide)
peptide: B2 peptide with G2S, A4W
B18: P49 (peptide)
peptide: B2 peptide with G2P
B19: P52 (peptide)
peptide: B2 peptide with G2S, A4F
B20: P58 (peptide)
peptide: B2 peptide with G2S, V5F
B21: P69 (peptide)
peptide: B2 peptide with G2S, V5W
B22: P44 (peptide)
peptide: B2 peptide with G2V
modifications: not fully specified
B23: P70 (peptide)
peptide: B2 peptide with G2S, V5Y
B24: P45 (peptide)
peptide: B2 peptide with G2T
B25: P63 (peptide)
peptide: B2 peptide with G2S, F6I
B26: P74 (peptide)
peptide: B2 peptide with G2S, K27Q
B27: P115 (peptide)
peptide: Hexanoyl-HSDAVFTDNYTRLRKQVAAKKYLQTIKNKRYGGPSSGAPPPS
B28: P34 (peptide)
peptide: HSDAVFTDNYTRLRKQVAAKKYLQSIKNKRF
B29: P33 (peptide)
peptide: Ac-HSDAVFTDNYTRLRKQVAAKKYLQSIKNKRYGGPSSGAPPPS
B30: P48 (peptide)
peptide: H[dS]DAVFTDNYTRLRKQVAAKKYLQSIKNKRYGGPSSGAPPPS
B31: P120 (peptide)
peptide: Hexanoyl-HSDAVFTDNYTRLRKQVAAKKYLQSIKNKRYGGPSSGAPPPC

The binders below were run against T1, human VPAC2 receptor (human, UniProt P41587 24-438) (assay: cell-based or functional assay).
T1 sequence (looked up): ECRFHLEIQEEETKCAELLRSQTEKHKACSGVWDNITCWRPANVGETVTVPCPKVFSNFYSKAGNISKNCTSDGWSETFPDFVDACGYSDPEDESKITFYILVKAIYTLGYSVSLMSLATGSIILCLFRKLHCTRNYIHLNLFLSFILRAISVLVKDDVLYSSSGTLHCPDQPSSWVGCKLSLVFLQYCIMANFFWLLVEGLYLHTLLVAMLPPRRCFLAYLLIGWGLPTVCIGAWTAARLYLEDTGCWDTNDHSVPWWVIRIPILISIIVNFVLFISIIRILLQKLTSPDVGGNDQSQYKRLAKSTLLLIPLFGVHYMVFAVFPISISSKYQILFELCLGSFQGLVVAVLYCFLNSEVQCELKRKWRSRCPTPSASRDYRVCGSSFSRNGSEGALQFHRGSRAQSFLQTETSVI

Binder	EC50 cAMP, DiscoveRx	EC50 cAMP, Alpha Screen
B1	1.68 nM	
B2	5.37 nM	
B3	13.2 nM	
B4	> 1000 nM	
B5	50.5 nM	
B6	32.8 nM	
B7	121 nM	
B8	91.1 nM	
B9	3.88 nM	
B10	20.3 nM	
B11	3.44 nM	
B12	> 1000 nM	
B13	> 1000 nM	
B14	15.3 nM	
B15	2.14 nM	
B16	2.56 nM	3.19 nM
B17	109 nM	
B18	13.4 nM	
B19	140 nM	
B20	11.8 nM	
B21	6.39 nM	
B22	0.92 nM	
B23	4.89 nM	
B24	11.6 nM	
B25	> 1000 nM	
B26	2.72 nM	
B27		0.2 nM
B28	2.28 nM	2.44 nM
B29	0.86 nM	0.73 nM
B30	9.55 nM	

The binders below were run against T2, human VPAC1 receptor (human, UniProt P32241 31-457) (assay: cell-based or functional assay).
T2 sequence (looked up): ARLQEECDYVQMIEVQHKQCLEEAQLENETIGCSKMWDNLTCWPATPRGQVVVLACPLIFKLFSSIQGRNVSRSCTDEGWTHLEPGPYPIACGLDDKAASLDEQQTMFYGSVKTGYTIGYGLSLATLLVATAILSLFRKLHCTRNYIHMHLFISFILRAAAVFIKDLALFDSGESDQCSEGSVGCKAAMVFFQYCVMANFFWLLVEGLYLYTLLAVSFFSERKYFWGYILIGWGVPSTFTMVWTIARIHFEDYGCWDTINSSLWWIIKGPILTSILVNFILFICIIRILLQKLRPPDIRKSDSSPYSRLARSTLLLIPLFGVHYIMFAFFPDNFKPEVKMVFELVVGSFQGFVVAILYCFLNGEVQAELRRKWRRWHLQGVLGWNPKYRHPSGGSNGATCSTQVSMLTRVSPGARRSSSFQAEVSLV

Binder	EC50 cAMP, DiscoveRx
B1	6.4 nM
B2	75.6 nM
B3	17 nM
B4	221 nM
B5	118 nM
B6	84.1 nM
B7	57.5 nM
B8	3.61 nM
B9	0.8 nM
B10	41 nM
B11	0.65 nM
B12	> 1000 nM
B13	< 1000 nM
B14	134 nM
B15	2.58 nM
B16	5 nM
B17	9.96 nM
B18	22.8 nM
B19	37.5 nM
B20	44.1 nM
B21	8.48 nM
B22	5.5 nM
B23	27.4 nM
B24	1.75 nM
B25	> 1000 nM
B26	0.4 nM
B28	0.8 nM
B29	4.7 nM
B30	9.93 nM

Each binder was assayed against T3, human PAC1 receptor (human, UniProt P41586 21-468) (assay: cell-based or functional assay).
T3 sequence (looked up): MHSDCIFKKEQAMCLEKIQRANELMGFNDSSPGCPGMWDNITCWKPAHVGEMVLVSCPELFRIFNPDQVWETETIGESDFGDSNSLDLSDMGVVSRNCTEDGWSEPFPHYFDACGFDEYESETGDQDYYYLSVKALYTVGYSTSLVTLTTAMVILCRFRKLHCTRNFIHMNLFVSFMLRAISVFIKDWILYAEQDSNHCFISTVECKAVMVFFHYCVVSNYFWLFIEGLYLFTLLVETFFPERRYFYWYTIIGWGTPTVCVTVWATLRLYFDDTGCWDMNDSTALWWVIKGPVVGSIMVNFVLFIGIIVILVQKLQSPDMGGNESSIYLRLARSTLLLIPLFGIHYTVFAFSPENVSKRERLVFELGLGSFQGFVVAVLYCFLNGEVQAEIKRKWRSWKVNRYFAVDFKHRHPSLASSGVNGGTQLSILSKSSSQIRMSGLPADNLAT

Binder	EC50 cAMP, DiscoveRx
B1	35.6 nM
B2	104 nM
B3	137 nM
B4	0.1 nM
B5	> 1000 nM
B6	> 1000 nM
B7	> 1000 nM
B8	> 1000 nM
B9	15.9 nM
B10	94.7 nM
B11	13.4 nM
B12	0.7 nM
B13	1.4 nM
B14	> 1000 nM
B15	11.6 nM
B16	> 40 nM
B17	405 nM
B18	44.2 nM
B19	> 1000 nM
B20	35.6 nM
B21	104 nM
B22	36.6 nM
B23	20.7 nM
B24	316 nM
B25	0.9 nM
B26	145 nM
B28	80.5 nM
B29	112 nM
B30	95.9 nM

What follows are binders tested against T4, rat VPAC1 receptor (rat, UniProt P30083 31-459) (assay: cell-based or functional assay).
T4 sequence (looked up): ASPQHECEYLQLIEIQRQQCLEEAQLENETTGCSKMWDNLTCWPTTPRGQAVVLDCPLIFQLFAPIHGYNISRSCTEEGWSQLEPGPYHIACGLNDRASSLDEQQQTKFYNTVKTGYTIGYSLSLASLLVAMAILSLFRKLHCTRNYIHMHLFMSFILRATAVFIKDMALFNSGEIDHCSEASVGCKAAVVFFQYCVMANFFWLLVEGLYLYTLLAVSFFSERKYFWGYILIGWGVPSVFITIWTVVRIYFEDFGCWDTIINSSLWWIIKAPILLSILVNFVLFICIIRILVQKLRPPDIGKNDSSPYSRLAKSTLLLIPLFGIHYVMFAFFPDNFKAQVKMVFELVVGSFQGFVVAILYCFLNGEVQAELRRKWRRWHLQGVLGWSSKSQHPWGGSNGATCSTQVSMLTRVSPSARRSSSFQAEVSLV

Binder	EC50 cAMP, DiscoveRx
B27	0.95 nM
B31	0.42 nM
